Assays:
[1] = molecular target: T1, human serum albumin (AffiGel 10-bound, HSA Column) (human, UniProt P02768 25-609); experiment: AffiGel-HSA control column loaded with the HeLa S100 >800 kDa fraction; tandem mass spectrometry of the eluate
T1 construct: also called HSA control column

[2] = molecular target: T1, human serum albumin (AffiGel 10-bound, …); experiment: Western blot of the eluate of the HSA control column with specific primary antibodies
[3] = molecular target: Death-associated protein 3 (DAP3) (human, UniProt P51398 22-398); experiment: co-immunoprecipitation with affi-gel-bound anti-Flag antibody from transfected HeLa cells; Western blot with anti-DAP3
Protocol: Briefly, equal numbers of HeLa cells were transfected with a control vector or Flag-epitope tagged N-terminus domain of BCL10 (aa. 1-97), C-terminus domain (aa. 104-233) or the full length BCL10. After 48 h of incubation, equal extracts (200 μg) from the transfected cells were incubated with a 50 μL of affi-gel-bound anti-Flag antibody. […] The expression of the Flag-BCL10 protein variants in the extracts (IB) was also assessed. β-actin was used as a loading control to ensure equal protein loading.

B1: Phosphatase of Regenerative Liver (PRL1/protein tyrosine phosphatase PTP4A1) (enzyme)
chain: MARMNRPAPVEVTYKNMRFLITHNPTNATLNKFIEELKKYGVTTIVRVCEATYDTTLVEKEGIHVLDWPFDDGAPPSNQIVDDWLSLVKIKFREEPGCCIAVHCVAGLGRAPVLVALALIEGGMKYEDAVQFIRQKRRGAFNSKQLLYLEKYRPKMRLRFKDSNGHRNNC
notes: Endogenous protein of HeLa cells; also called PRL1/PTP4A1
B1: no binding [1].

B2: Insulin-like growth factor II (IGF-II) messenger RNA (mRNA)-binding protein-3 (IMP3) (other, UniProt O00425 1-579, looked up)
chain: MNKLYIGNLSENAAPSDLESIFKDAKIPVSGPFLVKTGYAFVDCPDESWALKAIEALSGKIELHGKPIEVEHSVPKRQRIRKLQIRNIPPHLQWEVLDSLLVQYGVVESCEQVNTDSETAVVNVTYSSKDQARQALDKLNGFQLENFTLKVAYIPDEMAAQQNPLQQPRGRRGLGQRGSSRQGSPGSVSKQKPCDLPLRLLVPTQFVGAIIGKEGATIRNITKQTQSKIDVHRKENAGAAEKSITILSTPEGTSAACKSILEIMHKEAQDIKFTEEIPLKILAHNNFVGRLIGKEGRNLKKIEQDTDTKITISPLQELTLYNPERTITVKGNVETCAKAEEEIMKKIRESYENDIASMNLQAHLIPGLNLNALGLFPPTSGMPPPTSGPPSAMTPPYPQFEQSETETVHLFIPALSVGAIIGKQGQHIKQLSRFAGASIKIAPAEAPDAKVRMVIITGPPEAQFKAQGRIYGKIKEENFVSPKEEVKLEAHIRVPSFAAGRVIGKGGKTVNELQNLSSAEVVVPRDQTPDENDQVVVKITGHFYACQVAQRKIQEILTQVKQHQQQKALQSGPPQSRRK
notes: Endogenous protein of HeLa cells; It describes the protein as IGF2BP3 with a mass of 63705 Da and also lists NP_006538; also called IMAP3; IGF2BP3
B2: no binding [2].

B3: Flag-epitope tagged N-terminus domain of BCL10 (aa. 1-97) (other, not shown: small tags and cut ends)
chain: MEPTAPSLTEEDLTEVKKDALENLRVYLCEKIIAERHFDHLRAKKILSREDTEEISCRTSSRKRAGKLLDYLQENPKGLDTLVESIRREKTQNFLIQ
notes: Expressed in transfected HeLa cells; also called amino terminal CARD domain (aa 1-97); CARD (N-terminus) domain of BCL10
B3: no binding [3].

— patent US20210148907A1 (NATIONAL GUARD HEALTH AFFAIRS, published 2021)
